Reference: patent US20020192214A1 (published 2002)

T1: human eosinophil eotaxin receptor CC CKR3, stably expressed in AML14.3D10 cells (human, UniProt P51677 1-355)
T1 sequence: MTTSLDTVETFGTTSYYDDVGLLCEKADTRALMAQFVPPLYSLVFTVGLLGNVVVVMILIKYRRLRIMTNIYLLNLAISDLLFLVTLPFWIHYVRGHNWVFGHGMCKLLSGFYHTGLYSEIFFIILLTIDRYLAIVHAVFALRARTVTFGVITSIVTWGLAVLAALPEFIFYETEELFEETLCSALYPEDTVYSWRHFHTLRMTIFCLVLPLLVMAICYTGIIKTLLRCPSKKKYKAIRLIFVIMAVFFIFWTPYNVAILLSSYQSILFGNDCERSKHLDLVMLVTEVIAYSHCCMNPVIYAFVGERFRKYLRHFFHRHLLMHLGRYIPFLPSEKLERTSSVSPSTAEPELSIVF

T2: endogenous eosinophil eotaxin receptor (CC CKR3) on primary human eosinophils (human, UniProt P51677 1-355)
T2 construct: The target as printed is 'eosinophils' (primary cells from allergic and asthmatic donors); It also says eosinophils express a much lower level of CC CKR1; also called primary eosinophils
T2 sequence: T1 sequence

B1: MIP-1β (ligand, UniProt P13236 24-92, looked up)
chain: APMGSDPPTACCFSYTARKLPRNFVVDYYETSSLCSQPAVVFQTKRSKQVCADPSESWVQEYVYDLELN
notes: also called macrophage inflammatory protein 1β
B2: MIP-1α (ligand, UniProt P10147 24-92, looked up)
chain: SLAADTPTACCFSYTSRQIPQNFIADYFETSSQCSKPGVIFLTKRSRQVCADPSEEWVQKYVSDLELSA
notes: also called macrophage inflammatory protein 1α
B3: RANTES (ligand, UniProt P13501 24-91, looked up)
chain: SPYSSDTTPCCFAYIARPLPRAHIKEYFYTSGKCSNPAVVFVTRKNRQVCANPEKKWVREYINSLEMS
B4: murine eotaxin (ligand, UniProt P48298 24-97, looked up)
chain: HPGSIPTSCCFIMTSKKIPNTLLKSYKRITNNRCTLKAIVFKTRLGKEICADPKKKWVQDATKHLDQKLQTPKP
B5: human eotaxin (ligand)
chain: not shown
B6: MCP-3 (ligand)
chain: not shown

target: T1, human eosinophil eotaxin receptor CC …; assay: cell-based or functional assay

Binder | Ca^2+-flux (intracellular Ca^2+ levels) [µM]
B1 | > 1
B2 | > 1

target: T2, endogenous eosinophil eotaxin receptor …; assay: competition against 125I-MCP-3, primary eosinophils
Protocol: (§1) To provide additional pharmacological evidence, binding studies were conducted on primary eosinophils. […] The number of binding sites varied by less than 2-fold for the 3 donors used in the studies. […] Similarly, the Kd's obtained by competition against ¹²⁵I-MCP-3 on eosinophils are effectively indistinguishable to those measured against cloned CC CKR3 (see Table 1). All of the observations and measurements, taken together with the Western blot showing expression of CC CKR3, verify that CC CKR3 is the eosinophil eotaxin receptor, and appears to be largely responsible for mediating the effects of most β-chemokines on eosinophils.
(§2) Competition binding experiments were carried out against the indicated iodinated ligand as follows and as described herein. Equilibrium binding of β-chemokines to AML14.3D10 cells expressing CC CKR3 and to primary eosinophils was examined with increasing concentrations of unlabelled human eotaxin, murine eotaxin, RANTES, MCP-3, or MCP-1 to compete against fixed concentrations of either ¹²⁵I-human eotaxin, or ¹²⁵I-MCP-3. Also the competition with 100 nM concentrations of MIP-1α, and MIP-1β was examined. The experiments were carried out either with AML14.3D10 cells expressing CC CKR3, or with eosinophils. All values are the averages of triplicate determinations. Typically, 4000-6000 cpm of iodinated ligand was bound in the absence of compeititor with S/N ratios exceeding 15. Human and murine eotaxin are the human and murine chemokines, respectively. “N.B.” means that no competition was observed. All results are the averages of the number of experiments shown in parenthesis.

Binder | Kd [pM]
B3 | 900
B4 | 200
B5 | 200
B6 | 1100

target: T2, endogenous eosinophil eotaxin receptor …; assay: competition against 125I-human eotaxin, primary eosinophils
Protocol: as §1, §2

Binder | Kd [pM]
B3 | 2600
B4 | 100
B5 | 100
B6 | 3000

target: T2, endogenous eosinophil eotaxin receptor …; assay: competition against 125I-human eotaxin on primary eosinophils
Protocol: as §1
Competition binding experiments were carried out against the indicated iodinated ligand as follows and as described herein. Equilibrium binding of β-chemokines to AML14.3D10 cells expressing CC CKR3 and to primary eosinophils was examined with increasing concentrations of unlabelled human eotaxin, murine eotaxin, RANTES, MCP-3, or MCP-1 to compete against fixed concentrations of either ¹²⁵I-human eotaxin, or ¹²⁵I-MCP-3. Also the competition with 100 nM concentrations of MIP-1α, and MIP-1β was examined. The experiments were carried out either with AML14.3D10 cells expressing CC CKR3, or with eosinophils. All values are the averages of triplicate determinations. […]

Binder | binding result
B1 | no binding (tested: 100 nM)
B2 | no binding (tested: 100 nM)

target: T1, human eosinophil eotaxin receptor CC …; assay: competition against 125I-MCP-3, intact AML14.3D10 cells expressing CC CKR3
Protocol: Competition studies were also carried out against ¹²⁵I-MCP-3. […] Thus despite some small quantitative differences the overall ligand selectivity of the receptor is the same whether measured by competition against eotaxin or MCP-3, and the order of potency, eotaxin>MCP-3=RANTES>>MCP-1, is identical.
as §2

Binder | Kd [pM]
B3 | 500
B4 | 300
B5 | 200
B6 | 700

target: T1, human eosinophil eotaxin receptor CC …; assay: competition against 125I-human eotaxin on AML14.3D10 cells expressing CC CKR3
Protocol: (§3) Results with murine eotaxin were essentially identical. […] Clearly, CC CKR3 is a high affinity receptor for eotaxin.
as §2

Binder | binding result
B1 | no binding (tested: 100 nM)
B2 | no binding (tested: 100 nM)

target: T1, human eosinophil eotaxin receptor CC …; assay: competition against 125I-human eotaxin, intact AML14.3D10 cells expressing CC CKR3
Protocol: as §3, §2

Binder | Kd [pM]
B3 | 3100
B4 | 100
B5 | 100
B6 | 2700
